The text below walks through data of the supplement of paper PMC10126150.

± gives the standard deviation of the averaged measurements.

The subject of this data set is ATP. As to the kind of experiment: switch fluorescence ratio, 500 uM ATP over buffer (Cy3 cluster intensity, sum of 5 cycles each) (fold (ratio)); higher = stronger signal-on switching upon ATP binding; sequences stand for … in TCGTCGGCAGCGTCAGATGTGTATAAGAGACAGTTTTTTTTTTTTTTTTTTTTTTTTT…TC. The note with it: aptamer strand: ATP DNA aptamer (quencher-CACCTGGGGGAGTATTGCGGAGGAAGG + anchor), 100 nM annealed; ATP concentration: 500 uM. The method, boiled down: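 Cy3-labelled switching-strand clusters on a modified Illumina MiSeq flow-cell were annealed to 100 nM quencher-labelled ATP aptamer, imaged in selection buffer, then imaged after 15 min with 500 uM ATP at 22 °C. Five buffer/ATP cycles ran, with NaOH stripping and re-annealing between them. The fluorescence ratio is summed target-cycle over summed buffer-cycle Cy3 intensity per cluster, averaged per switch-domain sequence. Clusters outside 100-1000 RFU were excluded.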
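Further: ATP exposure 15 min at 22 °C before imaging.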

With AAGTTATGTA, the switch fluorescence ratio was 1.01 ± 0.031.
Consider GACTGGTATT, for which the switch fluorescence ratio stood at 0.991 ± 0.019.
Consider GCAAAATTGG, for which the switch fluorescence ratio is 1.04 ± 0.02.
The result for TTCAAAACGC reads 1.03 ± 0.054; that for GGTTAGTATT, 0.987 ± 0.021.
Take CTGATGCCGT: the switch fluorescence ratio is 1.08 ± 0.057.
Then CTGTTTGCCT, with 0.983 ± 0.021; and TCCTGCGCGT, with 4.52 ± 0.71.
The result for TGGTTTGGGG reads 0.974 ± 0.021; that for TTGAGAATT, 1.02 ± 0.051; that for TACTCGGGAA, 3.05 ± 2.
TATACGCGCC: the switch fluorescence ratio was 1.12 ± 0.083.
The result for GGGGTTTTCG reads 1.01 ± 0.029; that for CCCCTTGTGT, 2.087 ± 0.015; that for GCTTATCTAA, 0.997 ± 0.016.
For the sequence TTGCATTTAA, the switch fluorescence ratio was determined as 1.0047 ± 0.00053.
As to TTGGGTAGCT, the switch fluorescence ratio came out at 0.996 ± 0.043.
Then AGGTTAGAAG, with 1.006 ± 0.0014; and GGTTATAGCT, with 1.02 ± 0.034; and CTTCGGACCG, with 1.03 ± 0.096.
Then GCGGATAGAA, with 1.04 ± 0.017; and CACATTATTC, with 1.04 ± 0.033.
Then GGGATTAGTT, with 1.03 ± 0.023.
Turning to TTGCTTGTGT, the switch fluorescence ratio worked out at 0.9983 ± 0.0049.
The result for CCAGGGGCGT reads 1.393 ± 0.012; that for GAGTGAAATG, 1.02 ± 0.023.
On to TTAGGCTTT, for which the switch fluorescence ratio worked out at 0.9374 ± 0.0049.
Regarding TGGATGTTTG, the switch fluorescence ratio turned out to be 1.02 ± 0.018.
The result for CGGTGGGGAT reads 1.02 ± 0.046.
Then TCATGGGTAA, with 1.01 ± 0.029.
Then TTTTTAAAGG, with 0.976 ± 0.013.
Regarding GAGTTACGGC, the switch fluorescence ratio came out at 1.22 ± 0.26.
The result for ATTATTGGTG reads 1.018 ± 0.0046; that for ATGGATTGTG, 0.983 ± 0.011; that for TTTTTTCGCG, 1 ± 0.016.
The result for GATACTATTT reads 0.98 ± 0.03.
Then TCGGGGTCGG, with 1.03 ± 0.016; and GGAATGTTAG, with 0.986 ± 0.012.
On to ATAAAAATCG, for which the switch fluorescence ratio came to 0.989 ± 0.027.
Consider CACCGTTTTC, for which the switch fluorescence ratio was determined as 1.1 ± 0.028.
Then ATTCGCTTCT, with 1.02 ± 0.013; and CGGGAGGTCG, with 1.05 ± 0.082; and AGAAATGAAT, with 1.04 ± 0.024.
Take GGGTTAGCCT: the switch fluorescence ratio is 0.999 ± 0.011.
Then TTATAAAGCG, with 1.054 ± 0.0028; and GGGATAAGAG, with 0.973 ± 0.029.
Regarding TCGTCATTGC, the switch fluorescence ratio is 1.22 ± 0.037.
In the case of TGAAGTCTGC, the switch fluorescence ratio amounted to 0.968 ± 0.036.
AAACAGGGTG: the switch fluorescence ratio came out at 1.05 ± 0.05.
For the sequence AGTCGGGGGG, the switch fluorescence ratio amounted to 0.989 ± 0.021.
For TTATCATGGG, the switch fluorescence ratio was 0.993 ± 0.047.
Take GTAGTTTTGG: the switch fluorescence ratio turned out to be 1.01 ± 0.026.
The result for GTGAGTGGGG reads 0.972 ± 0.021; that for TGAAAGTTTG, 1.01 ± 0.026.
The result for CGGCTGTGCT reads 1 ± 0.022; that for GGTGCCTGTT, 1 ± 0.011.
As to GGCTTCTAAG, the switch fluorescence ratio worked out at 0.994 ± 0.026.
Then AAAAGTGTCG, with 1.06 ± 0.056.
Then GGGGATGAGG, with 0.9698 ± 0.0095.
Regarding TTGTTTGGCT, the switch fluorescence ratio stood at 1.01 ± 0.015.
Then AGGCTCGGGG, with 1.04 ± 0.026; and GGGCACGAAG, with 1 ± 0.013.
Take TACAAAAAAT: the switch fluorescence ratio was 1.03 ± 0.047.
Then GTGGATAGTC, with 0.992 ± 0.066.
For the sequence ACGGAGGGTT, the switch fluorescence ratio is 0.992 ± 0.01.
Then TATGTCCGTA, with 1 ± 0.013; and TGTGTCGCGG, with 1 ± 0.033.
Then TTGGTTGGAA, with 1 ± 0.072.
For ATAGTGTGGC, the switch fluorescence ratio came out at 0.952 ± 0.029.
The result for CTTTTAGGGA reads 0.989 ± 0.028; that for TGAGCGGATG, 0.994 ± 0.036; that for ATAATTATGC, 1.025 ± 0.0052.
For ATGGATTTAA, the switch fluorescence ratio came out at 1.012 ± 0.0041.
The result for CCATTTTTTT reads 0.997 ± 0.042; that for AGCGGGTCGG, 1 ± 0.021; that for TTTATTATTT, 0.989 ± 0.024.
The result for AGGTGCCAGG reads 1.07 ± 0.036; that for GACGGTTCGT, 1.01 ± 0.022; that for TTGTGCGTAG, 0.991 ± 0.047.
The result for ACTATCTTTG reads 0.9924 ± 0.0098; that for TTGAGGTATA, 0.987 ± 0.025.
For the sequence CGGCTTACAC, the switch fluorescence ratio was 1.12 ± 0.017.
Then TTCGGAAGGG, with 0.956 ± 0.025; and CCCAGATTAA, with 1.01 ± 0.085.
For GGAAGTAAAA, the switch fluorescence ratio was 1.03 ± 0.076.
As to TGTAAAATTT, the switch fluorescence ratio was determined as 0.988 ± 0.053.
Then GTGCGCATGG, with 1.13 ± 0.067.
Then TCTGTCCCGC, with 1.16 ± 0.11; and ATAATTTGAC, with 1.04 ± 0.058; and GGTGGCAAAT, with 1.01 ± 0.013.
The result for GGGAATAATG reads 1.01 ± 0.0091; that for TTAAAGGGTG, 1.08 ± 0.048.
As to ATTGGGTGTG, the switch fluorescence ratio stood at 0.987 ± 0.027.
Then TGGTTTAGTT, with 0.998 ± 0.017; and GGGCTTAAAA, with 0.98424 ± 0.00098; and TTACCTCATT, with 1.02 ± 0.015.
Then GGGTCAATAT, with 1.13 ± 0.032.
The result for TACGATGCGG reads 1.07 ± 0.038; that for CGTGGGTGGG, 1.01 ± 0.036; that for GTTTTTAGT, 1.006 ± 0.0027.
With AAGCCGGGAT, the switch fluorescence ratio was determined as 1.02 ± 0.016.
The result for TGCCGTTTTC reads 1.04 ± 0.011; that for CTGTTTTTGA, 0.96 ± 0.061; that for GTTTTTTGTA, 0.994 ± 0.022.
The result for GAAAAACCTT reads 3.83 ± 1.6; that for TTGAAATTT, 1.001 ± 0.003; that for CAGCTAGAGG, 1 ± 0.037.
Turning to TCTGGTTTTT, the switch fluorescence ratio came to 1.01 ± 0.015.
Then TTAAATTTCT, with 1.02 ± 0.0034.
Turning to TATGACATTA, the switch fluorescence ratio was determined as 1.025 ± 0.0026.
With TCATAATTAG, the switch fluorescence ratio is 1 ± 0.0068.
The result for CGGAGTTTTT reads 0.9971 ± 0.0058; that for TATAGCTAAT, 1.027 ± 0.0041; that for CTTAAAATGC, 1.66 ± 0.46.
The result for TTGATTACTC reads 1.04 ± 0.051.
As to GGCTGAAGAG, the switch fluorescence ratio stood at 1.02 ± 0.033.
The result for CTGCATGGTT reads 1.01 ± 0.016; that for GGATGTATAG, 0.997 ± 0.052.
As to TGTTACTAGC, the switch fluorescence ratio was found to be 1.03 ± 0.0034.
Then CGGTTCGGGC, with 0.983 ± 0.023.
